The values that follow come from paper PMC5855643.

Assay [1] concerns the target FcγRIIIa receptor, F158 (low affinity) variant (UniProt P08637).
The target of assay [2] is FcγRIIIa receptor, V158 (high affinity) variant.

On to “Rituxan^® (rituximab, innovator product) (antibody)”, for which, in assay [1], the EC50 of the ADCC reporter bioassay, Daudi target cells, F/F 158 variant effector cells was 22 ng/mL and the EC50 of the ADCC reporter bioassay, Wil2-S target cells, F/F 158 variant effector cells amounted to 18 ng/mL. For the same substance, in assay [2], the EC50 of the ADCC reporter bioassay, Daudi target cells, V/V 158 variant effector cells came to 12 ng/mL and the EC50 of the ADCC reporter bioassay, Wil2-S target cells, V/V 158 variant effector cells amounted to 15.7 ng/mL.
On the same counts, the results for “reglycosylated plant-made rituximab (NbRTX^A2G2) (antibody)” are 7 ng/mL, 4.4 ng/mL, 2.9 ng/mL and 2.7 ng/mL.
